# According to patent US20070274981A1 (Eli Lilly, published 2007):
# B1: FR1-H7 (antibody, V domains shown)
# VH: EVQLVQSGAEVKKPGASVKVSCKVSGYTFTDYYMHWVQQAPGKGLEWMGLVDPEDGETIYAEKFQGRVTITADTSTDTAYMELSSLRSEDTAVYYCARDDYMDVWGKGTLVTVSS
# VL: ETTLTQSPDTLSLSPGEGATLSCRASQSVSGSALAWYQQKPGQAPRLLIYDASSRATGVPDRFSGSGSGADFSLTISRLEPEDFAVYSCQQYGSSPLTFGPGTKVDVKR
# notes: also called FR1-H7 antibody
# B2: FR1-A1 (antibody, V domains shown)
# VH: QVQLVQSGAEVKKPGSSVKVSCKASGQTFTGYYMHWVRQAPGQGLEWMGRIIPILGIANYAQKFQGRVTITADKSTSTAYMELSSLRSEDTAVYYCARGGDLGGMDVWGQG
# VL: EIVLTQSPLSLPVTPGEPASISCRSSQSLRHSNGYNYLDWYLQKPGQSPQLLIYLASNRASGVPDRFSGSGSGTDFTLKISRVEAEDVGVYYCMQALQIPPTFGPGTKVDIKR
# notes: also called FR1-A1 antibody
# B3: FR1-4H (antibody, V domains shown)
# VH: QVQLVEFGPGLVKPSETLSLTCTVSGGSISSYYWSWIRQPPGKGLEWIGYIYYSGSTNYNPSLKSRVAISVDTSKNQFSLKLSSVTAADTAVYYCAREYYYDSSGYYFYAFDIWGQGTTVTVSS
# VL: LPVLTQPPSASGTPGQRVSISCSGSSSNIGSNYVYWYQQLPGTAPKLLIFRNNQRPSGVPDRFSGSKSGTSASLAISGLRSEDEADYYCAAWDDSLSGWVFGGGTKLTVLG
# notes: Isolated by the same procedure as FR1-H7 and FR1-A1
# Columns and labels:
# Recombinant FGFR-1(IIIb) [1] = biological target: T1, Recombinant FGFR-1(IIIb) (UniProt P11362-19 22-376); assay: kinetic analysis (BiaCore)
# T1 construct: Bought (R&D Systems); also called FGFR-1b; FGFR-(IIIb); not shown: Fc-tag of the recombinant receptor (detected with anti-human Fc)
# T1 sequence (looked up): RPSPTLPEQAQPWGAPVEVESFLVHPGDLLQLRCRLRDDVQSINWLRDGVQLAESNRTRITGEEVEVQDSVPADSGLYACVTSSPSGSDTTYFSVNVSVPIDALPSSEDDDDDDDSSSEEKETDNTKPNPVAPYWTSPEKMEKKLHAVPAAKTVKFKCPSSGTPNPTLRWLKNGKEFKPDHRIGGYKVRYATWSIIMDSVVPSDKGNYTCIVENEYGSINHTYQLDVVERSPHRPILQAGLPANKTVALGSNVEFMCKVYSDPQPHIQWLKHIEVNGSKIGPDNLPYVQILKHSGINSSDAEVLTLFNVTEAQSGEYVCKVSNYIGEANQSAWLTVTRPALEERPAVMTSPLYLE
# Recombinant FGFR-1(IIIb) [2] = biological target: T1, Recombinant FGFR-1(IIIb); assay: ELISA blocking assay: FGFR-1(IIIb) binding to immobilised FGF-1
# Method: (§1) Recombinant FGFs (R&D systems, Minneapolis, Minn.) were coated on Immulon® 2B microtiter plates (ThermoLab Systems, Franklin, Mass.) at concentrations of 0.5-2 μg/ml for 2 hrs. The plates were then washed with 0.2% Tween20/PBS, and blocked with 5% milk/PBS for 2 hrs before use. Phage or antibody was serially diluted with 5 μg/ml heparin (Sigma, St Louis, Mo.), 5% milk, PBS. Recombinant FGFR-1 (R&D Systems) was then added to a final concentration of 1 μg/ml. […] Plates were then washed 3 times with 0.2% Tween20/PBS. The bound receptors were detected using an anti-human Fc monoclonal antibody coupled with HRP (Pierce Biotechnology Inc., Rockford, Ill.) solution prepared according to supplier's instructions. Data were presented as % inhibition of ligand-receptor binding of the controls.
# (§2) The blocking activities to fully active, native FGFR-1 receptor were determined in the cell-based blocking assay.
# Recombinant FGFR-4 [3] = biological target: T2, Recombinant FGFR-4 (UniProt P22455 22-369); assay: BiaCore 3000 biosensor, binding kinetics
# T2 construct: Bought (R&D Systems); also called FGFR-4(IIIc)
# T2 sequence (looked up): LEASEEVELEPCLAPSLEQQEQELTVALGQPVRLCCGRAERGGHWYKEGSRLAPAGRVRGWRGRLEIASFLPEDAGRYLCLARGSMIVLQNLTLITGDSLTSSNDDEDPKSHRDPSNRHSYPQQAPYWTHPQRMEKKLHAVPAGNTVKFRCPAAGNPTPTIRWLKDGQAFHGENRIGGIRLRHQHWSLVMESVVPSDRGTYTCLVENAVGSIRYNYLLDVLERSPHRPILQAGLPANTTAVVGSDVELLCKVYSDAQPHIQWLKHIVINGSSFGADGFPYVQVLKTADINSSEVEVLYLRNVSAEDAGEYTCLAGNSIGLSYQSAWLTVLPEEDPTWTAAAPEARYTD
# Recombinant FGFR-1(IIIb) [4] = biological target: T1, Recombinant FGFR-1(IIIb); assay: BiaCore 3000 biosensor, binding kinetics
# Recombinant FGFR-1(IIIb) [5] = biological target: T1, Recombinant FGFR-1(IIIb); assay: ELISA blocking assay: FGFR-1(IIIb) binding to immobilised FGF-2
# Method: as §1, §2
# Recombinant FGFR-4 [6] = biological target: T2, Recombinant FGFR-4; assay: kinetic analysis (BiaCore)
# Recombinant FGFR-1(IIIb) [7] = biological target: T1, Recombinant FGFR-1(IIIb); assay: BiaCore analyses
binder,measurement,setting,value
B1,Kd,Recombinant FGFR-1(IIIb) [1],~0.05 nM
same,IC50,Recombinant FGFR-1(IIIb) [2],~5 nM
same,Kd,Recombinant FGFR-4 [3],200 nM
same,Kd,Recombinant FGFR-1(IIIb) [4],0.06 nM
same,IC50,Recombinant FGFR-1(IIIb) [5],2 to 5 nM
B2,Kd,Recombinant FGFR-4 [6],90 nM
B3,Kd,Recombinant FGFR-1(IIIb) [7],1.1 nM
